Read-outs that look alike come from different tables or passages of the source.
Tests used:
[1] = target: Macaca mulatta TLR7 extracellular domain (Macaca mulatta); experiment: cryo-EM structure
[2] = target: Macaca mulatta TLR7 extracellular domain (Macaca mulatta); experiment: cryo-EM structure; remark: listed apart in the source
[3] = target: T1, TLR8 extracellular domain (Homo sapiens, UniProt Q9NR97 27-827); experiment: SPR
T1 sequence: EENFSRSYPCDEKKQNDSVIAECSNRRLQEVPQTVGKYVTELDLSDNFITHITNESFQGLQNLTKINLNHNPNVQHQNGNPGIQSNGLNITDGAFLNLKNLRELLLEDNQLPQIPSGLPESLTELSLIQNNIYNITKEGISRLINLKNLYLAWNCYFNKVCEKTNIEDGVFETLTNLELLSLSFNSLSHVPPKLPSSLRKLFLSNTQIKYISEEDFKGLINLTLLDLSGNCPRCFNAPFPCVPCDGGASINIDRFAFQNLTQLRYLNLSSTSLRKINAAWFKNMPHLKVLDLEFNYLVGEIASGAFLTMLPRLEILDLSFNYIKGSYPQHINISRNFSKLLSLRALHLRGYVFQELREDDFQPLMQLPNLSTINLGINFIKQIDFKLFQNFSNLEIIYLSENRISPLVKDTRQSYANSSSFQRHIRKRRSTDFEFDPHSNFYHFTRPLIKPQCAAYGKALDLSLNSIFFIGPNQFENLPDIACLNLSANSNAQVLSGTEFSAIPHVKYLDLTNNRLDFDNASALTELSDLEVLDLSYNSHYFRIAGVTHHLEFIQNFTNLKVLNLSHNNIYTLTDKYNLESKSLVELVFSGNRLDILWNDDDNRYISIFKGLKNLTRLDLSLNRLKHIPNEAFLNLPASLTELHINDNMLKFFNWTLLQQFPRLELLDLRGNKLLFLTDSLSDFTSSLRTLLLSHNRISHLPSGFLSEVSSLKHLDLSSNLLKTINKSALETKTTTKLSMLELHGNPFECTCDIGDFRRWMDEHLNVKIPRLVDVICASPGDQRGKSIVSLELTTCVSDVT

[4] = target: T1, TLR8 extracellular domain; experiment: SPR; remark: listed apart in the source

## Macaca mulatta TLR7 extracellular domain (receptor)
[1]
  stoichiometry N: 2
[2]
  stoichiometry N: 2

## GAG (XNA, 2'-OMe at G1 and A2; DNA G3; phosphorothioate linkages, stereorandom) [GAG-v1 (mGmAdG)]
[3]
  Kd: 4 µM

## GCC (XNA, 2'-OMe at G1; DNA C2 and C3; phosphorothioate linkages, stereorandom) [GCC-v4 (mGdCdC)]
[4]
  Kd: 8 µM
